# Reference: patent US5876691A, “Antibody against carcionembryonic antigen (CEA)” (Cancer Research Campaign Technology Limited, priority 1993, dated 1999)
# T1: CEA (Homo sapiens, UniProt P06731)
# T1 sequence (P06731 35-702): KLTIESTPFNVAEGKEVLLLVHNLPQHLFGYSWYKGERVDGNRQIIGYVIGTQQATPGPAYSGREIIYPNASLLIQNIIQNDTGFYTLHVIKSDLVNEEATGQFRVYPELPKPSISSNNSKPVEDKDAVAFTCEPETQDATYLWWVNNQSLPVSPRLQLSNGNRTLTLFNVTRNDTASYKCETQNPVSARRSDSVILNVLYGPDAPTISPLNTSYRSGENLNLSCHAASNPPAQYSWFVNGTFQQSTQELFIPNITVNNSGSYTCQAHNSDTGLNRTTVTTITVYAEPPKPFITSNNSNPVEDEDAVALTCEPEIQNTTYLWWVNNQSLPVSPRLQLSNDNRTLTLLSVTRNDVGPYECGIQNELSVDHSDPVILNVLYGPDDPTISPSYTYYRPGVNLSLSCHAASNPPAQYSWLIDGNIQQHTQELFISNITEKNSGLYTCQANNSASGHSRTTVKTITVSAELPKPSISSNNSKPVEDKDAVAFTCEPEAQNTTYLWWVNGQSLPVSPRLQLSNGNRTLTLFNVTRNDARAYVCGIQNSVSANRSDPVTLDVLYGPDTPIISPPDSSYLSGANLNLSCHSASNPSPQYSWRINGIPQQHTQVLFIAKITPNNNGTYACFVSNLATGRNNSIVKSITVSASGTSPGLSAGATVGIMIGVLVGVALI
# Legend:
# [1] = Storage stability by FPLC (Superose 12); format: physicochemical; conditions: 4° C. and -70° C. up to 6 months
# Method: (§1) Samples at each purification stage were analysed for endotoxin levels using Limulus ameobocyte lysate (LAL) gel clot vials (Atlas bioscan. Bognor Regis, UK) according to the manufacturers' recommended instructions; a further aliquot (three times the patient dose) was tested by injection into rabbits (Safepharm Laboratories; Derby, UK) Bacterial supernatant containing MFE-23 His, semipurified MFE-23 His and the final product were tested for the presence of bacterial DNA using the Digoxigenin (DIG) DNA labelling and detection assay (Boeringer Mannheim, Lewes, UK). A probe was constructed using a mixture of equal proportions of MFE-23 plasmid DNA and total bacterial DNA. DIG labelled DNA probes were detected after hybridisation. to target samples by enzyme-linked immunoassay using an anti-DIG alkaline phosphatase conjugate. The probe was sensitive to 12 pg of DNA. […] Stability of the antibody was assessed by storing aliquots at 4° C. and -70° C. and subsequently analysing samples at certain time intervals using a Superose 12 HR 10/30 (Pharmacia) FPLC column. Retention of antigen binding following 6 months storage at 4° C. was measured by applying a known amount of purified antibody to the CEA affinity column (refer to section 2.7) and quantitating the % bound (specific activity). […]
# CEA [2] = target: T1, CEA; assay: CEA binding of radiolabelled product on CEA/Sepharose column
# Method: 75 μg of A5-SC and MFE-23 were iodinated with 0.5 mCi of 125-I using the Chloramine T/L-Tyrosine method^20. […] The stability of the radiolabelled products was tested by gel filtration on S-100.
# MFE-cys was radiolabelled with ^99m Tc using a ^99m Tc-D-glucarate transfer method^22. 1 ml of ^99m Tc sodium pertechnetate (40.5 mCi) was added to 12.5 mg of monopotassium D-glucarate, 16.8 mg of sodium bicarbonate and 100 μg of stannous chloride (stannous chloride was made up directly before use at a concentration of 0.2 mg/ml). This solution was left for 1 min at room temperature. Then 0.5 ml was mixed with 200 μg MFE-cys in PBS/1 mM EDTA. The mixture was incubated at room temperature for 30 min and then applied to a PD 10 column (Pharmacia; primed with 3% human serum albumin in PBS) to separate the radiolabelled protein from the free pertechnetate. The efficiency of ^99m Tc uptake was tested by thin layer chromatography, using acetonitrile/water (30:20) as running solvent. An aliquot (100 μl) of diluted radiolabelled scFv (1:30 in PBS/Tween 20) was applied to a 1 ml CEA-sepharose column, containing 1 mg of CEA, to test CEA-binding. The column was washed with 8 volumes of PBS/0.05% Tween 20 and bound material was obtained by adding 3M ammoniumthiocyanate. Further, the stability of the labelled scFv was tested by applying the product (diluted 1:30) to Sephacryl S-100. To test the stability of the radiolabelled product in vivo serum taken from mice injected with the labelled scFv 24 h after administration was also applied to Sephacryl S-100. Stability of the ^99m Tc-labelled product was also tested by gel autoradiography as follows: radiolabelled MFE-cys was subjected to SDS-PAGE using a 15% non-reducing acrylamide gel. The protein was then Western blotted onto Immobilon P (Millipore), and visualised by autoradiography using Kodak X-Omatic cassette and Hyperfilm-MP film (Amersham).
# Thin layer chromatography (TLC) was performed to measure % ^125 I incorporation. Antigen binding was also assessed by applying a dilution of the radiolabel to a CEA coupled Sepharose 4B (1 mg CEA; 1 ml column volume). The unbound fraction was washed through with 2 column volumes of PBS and the bound fraction with the same volume of 3M ammonium thiocyanate. A control scFv B1.8 which is not specific for CEA and MFE-23 containing a c-myc tag (MFE-23 myc) were tested as a comparison. The unbound and bound fractions were analysed for ^125 I activity using a gamma counter. Stability assessments were carried out by applying a sample of the radiolabel and unlabelled product to a 15% SDS PAGE minigel. The ^125 I-MFE-23 His was visualised by autoradiography and the unlabelled product by Coomassie blue staining. ^125 I-MFE-23 His was also applied to a 100 ml Sephacryl S-100 column (115×1 cm). 1.5 ml fractions were collected and counted for ^125 I activity.
# CEA [3] = target: T1, CEA; assay: Retention of antigen binding on storage (CEA affinity column, specific activity); set-up: CEA was obtained from a patient's colorectal tumour liver metastasis by extraction using perchloric acid; from tissue; host or cells: patient's colorectal tumour liver metastasis, perchloric acid extract
# Method: 2 liters of MFE-23 His which had been concentrated and dialysed in PBS (400 ml) was purified using a 6 ml cyanogen bromide activated Sepharose 4B (Pharmacia Biotech.) affinity column coupled to CEA (8 mg). CEA was obtained from a patient's colorectal tumour liver metastasis by extraction using perchloric acid^34. One column pass of 30 ml supernatant per run was performed.
# Samples at each purification stage were analysed for endotoxin levels using Limulus ameobocyte lysate (LAL) gel clot vials (Atlas bioscan. Bognor Regis, UK) according to the manufacturers' recommended instructions; a further aliquot (three times the patient dose) was tested by injection into rabbits (Safepharm Laboratories; Derby, UK) Bacterial supernatant containing MFE-23 His, semipurified MFE-23 His and the final product were tested for the presence of bacterial DNA using the Digoxigenin (DIG) DNA labelling and detection assay (Boeringer Mannheim, Lewes, UK). A probe was constructed using a mixture of equal proportions of MFE-23 plasmid DNA and total bacterial DNA. DIG labelled DNA probes were detected after hybridisation. to target samples by enzyme-linked immunoassay using an anti-DIG alkaline phosphatase conjugate. The probe was sensitive to 12 pg of DNA. The final product was also assayed for Cu^2+ content and compared with earlier purification stages, using flame photometry (Trace Element laboratory-University of Surrey). An aliquot was also protein sequenced using amino acid analysis by the CRC protein sequencing facility (University college of London) to confirm homogeneity of the final product and cleavage of the pelB leader sequence in the periplasm. Stability of the antibody was assessed by storing aliquots at 4° C. and -70° C. and subsequently analysing samples at certain time intervals using a Superose 12 HR 10/30 (Pharmacia) FPLC column. Retention of antigen binding following 6 months storage at 4° C. was measured by applying a known amount of purified antibody to the CEA affinity column (refer to section 2.7) and quantitating the % bound (specific activity). These values were compared by applying a known amount of MFE-23 His previously purified using the same column.
# [4] = Pyrogen test by injection into rabbits; format: in vivo; conditions: final product, three times the patient dose
# Method: as §1
# [5] = Stability of radiolabelled product by gel filtration on S-100 / SDS PAGE; format: physicochemical; conditions: 125I label, SDS PAGE and gel filtration
molecule,measurement,setting,value
"MFE-23 His: MFE-23 scFv with hexa-histidine tail at the C-terminus, clinical grade (protein) scFv: QVKLQQSGAELVRSGTSVKLSCTASGFNIKDSYMHWLRQGPEQGLEWIGWIDPENGDTEYAPKFQGKATFTTDTSSNTAYLQLSSLTSEDTAVYYCNEGTPTGPYYFDYWGQGTTVTVSSGGGGSGGGGSGGGGSENVLTQSPAIMSASPGEKVTITCSASSSVSYMHWFQQKPGTSPKLWIYSTSNLASGVPARFSGSGSGTSYSLTISRMEAEDAATYYCQQRSSYPLTFGAGTKLELK","stability on storage, FPLC analysis",[1],no evidence of aggregation
same,"counts in bound fraction of CEA column, % of total counts recovered","CEA [2]; 125I radiolabelled, Example 5",75%
same,"counts in unbound fraction of CEA column, % of total counts recovered","CEA [2]; 125I radiolabelled, Example 5",25%
same,further counts recovered in bound fraction on reapplying the unbound fraction,"CEA [2]; % of total counts loaded, unbound fraction reapplied to CEA column",58%
same,antigen binding retained after radiolabelling,CEA [2]; after radiolabelling (125I),> 75%
same,antigen binding retained after storage,CEA [3]; 6 months storage at 4° C.,84%
same,Specific activity (% bound to CEA column),"CEA [3]; CEA antigen affinity chromatography purified (d), 1 mg applied to column",89%
same,Specific activity (% bound to CEA column),"CEA [3]; IMAC purified (a), 2 mg applied to column, 6 months storage at 4° C.",69%
same,Specific activity (% bound to CEA column),"CEA [3]; IMAC purified (b), 1 mg applied to column, 6 months storage at 4° C.",75%
same,Specific activity (% bound to CEA column),"CEA [3]; IMAC purified (c), 0.5 mg applied to column, 6 months storage at 4° C.",81%
same,mean % bound specific activity,CEA [3]; IMAC purified material (a-c),75%
same,pyrogenicity by in vivo rabbit testing,[4],non pyrogenic
same,stability of radiolabelled product,[5],"monomeric, intact and unaggregated"
